The text below walks through data of article PMC4691288.

The assay addresses WXyn43, GH43 β-xylosidase from Weissella sp. strain 92 (full-length enzyme) (Weissella sp. strain 92). In words: SEC.

The term stoichiometry N denotes the number of molecules, sites or subunits per partner or assembly. In turn, “WXyn43, GH43 β-xylosidase from Weissella sp. strain 92 (full-length enzyme)” gave a stoichiometry N of 4.
